The assay concerns the target T1, factor XII (FXII) (human, UniProt P00748 20-615).
T1 construct: Endogenous FXII in human plasma in the pulldown; purified FXII in the chromogenic assay; also called FXII zymogen
T1 sequence (looked up): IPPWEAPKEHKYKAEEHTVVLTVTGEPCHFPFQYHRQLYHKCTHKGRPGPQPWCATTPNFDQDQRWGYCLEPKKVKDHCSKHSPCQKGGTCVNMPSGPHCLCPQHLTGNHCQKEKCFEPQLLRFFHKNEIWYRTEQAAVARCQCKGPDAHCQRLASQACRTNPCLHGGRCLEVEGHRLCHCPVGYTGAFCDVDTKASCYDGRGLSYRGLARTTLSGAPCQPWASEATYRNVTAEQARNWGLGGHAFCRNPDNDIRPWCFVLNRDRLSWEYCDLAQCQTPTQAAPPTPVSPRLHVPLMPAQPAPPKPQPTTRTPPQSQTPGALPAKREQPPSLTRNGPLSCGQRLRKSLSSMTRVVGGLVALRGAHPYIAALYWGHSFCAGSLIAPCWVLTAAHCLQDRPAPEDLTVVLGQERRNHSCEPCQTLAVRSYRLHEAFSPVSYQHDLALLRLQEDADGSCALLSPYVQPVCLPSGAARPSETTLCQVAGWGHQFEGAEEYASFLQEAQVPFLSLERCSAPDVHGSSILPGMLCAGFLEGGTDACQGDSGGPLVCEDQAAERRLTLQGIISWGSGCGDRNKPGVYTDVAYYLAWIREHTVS
The assay can be described thus: streptavidin bead pulldown from human plasma, Western blot for FXII.

Where no end group is shown, it is not given here.

B1: biotinylated amylin (peptide, UniProt P10997 34-70, looked up)
peptide: KCNTATCATQRLANFLVHSSNNFGAILSSTNVGSNTY
modifications: ends and bridges not checked; also: biotinylated (site not given here)
notes: Control aggregating peptide in the pulldown
With B1, the binding result is “no binding (tested: 500 Nm)”.

These data come from patent publication US20170363644A1 (ROCKEFELLER UNIVERSITY, published 2017).
